Measurements taken from patent US20250043022A1 (JIANGSU HENGRUI PHARMACEUTICALS, published 2025).

The binders below were run against T1, human PSMA on cells (Cho-hPSMA, CHO-K1 cells overexpressing full-length human PSMA) (human, UniProt Q04609 1-750) (assay: cell ELISA (OD450), Cho-hPSMA cells).
T1 construct: whole, on cells; also called cell surface PSMA; PSMA-expressing Lncap cells
Experimental: Experiment 2: Cells were cultured and inoculated onto a cell plate using the same method as in Experiment 1. The antibodies were serially diluted, and the antibody solutions were added to the cell plate at 100 μL/well. The plate was incubated at 4° C. for 1 h and then washed. An HRP-Goat Anti-human IgG (H+L) secondary antibody dilution (1:8000) was added to the cell plate at 100 μL/well, and the plate was incubated at 4° C. for 1 h and then washed by centrifugation. After color development with TMB, the reaction was stopped with 0.1 M sulfuric acid, and OD450 values were measured.

T1 sequence (Q04609 whole entry): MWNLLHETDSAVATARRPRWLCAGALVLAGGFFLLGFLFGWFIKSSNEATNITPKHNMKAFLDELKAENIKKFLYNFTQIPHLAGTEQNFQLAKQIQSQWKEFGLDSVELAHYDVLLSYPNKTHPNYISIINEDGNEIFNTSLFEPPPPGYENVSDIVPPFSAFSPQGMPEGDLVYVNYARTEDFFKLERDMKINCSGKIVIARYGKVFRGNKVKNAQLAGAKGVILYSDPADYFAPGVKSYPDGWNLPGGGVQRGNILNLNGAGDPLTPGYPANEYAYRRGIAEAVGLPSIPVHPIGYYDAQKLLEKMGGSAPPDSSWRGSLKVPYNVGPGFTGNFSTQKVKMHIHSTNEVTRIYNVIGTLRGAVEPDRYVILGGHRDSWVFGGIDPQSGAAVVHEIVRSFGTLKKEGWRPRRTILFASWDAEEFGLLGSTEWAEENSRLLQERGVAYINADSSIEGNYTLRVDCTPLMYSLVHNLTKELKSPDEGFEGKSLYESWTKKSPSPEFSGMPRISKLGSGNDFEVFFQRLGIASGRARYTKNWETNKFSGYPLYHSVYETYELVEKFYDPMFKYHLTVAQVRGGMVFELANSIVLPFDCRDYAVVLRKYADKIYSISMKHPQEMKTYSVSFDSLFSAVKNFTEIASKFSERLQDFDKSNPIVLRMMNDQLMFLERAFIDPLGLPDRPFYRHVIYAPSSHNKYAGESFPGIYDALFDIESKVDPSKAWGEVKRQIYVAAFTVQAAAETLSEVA

| Binder | EC50 [µg/mL] |
| --- | --- |
| hu46H1L3 (antibody, human IgG1, kappa, V domains shown) VH: EVQLVESGGGLVKPGGSLRLSCAASGFTFSNYGMSWVRQAPGKGLEWVSTIGSGGGYTYYSDSVKGRFTISRDNAKNSLYLQMNSLRAEDTAVYYCARHPQIGYWGQGTLVTVSS VL: DIQMTQSPSSLSASVGDRVTITCKASQSVGTAVAWYQQKPGKAPKLLIYSASSRYTGVPDRFSGSGSGTDFTLTISSLQPEDFADYFCHQYSSYPLTFGGGTKVEIKR | 0.123 |
| hu46H3L3 (antibody, human IgG1, kappa, V domains shown) VH: EVQLVESGGGLVKPGGSLRLSCAASGFTFSNYGMSWVRQAPGKGIKWVSTIGSGGGYTYYSDSVKGRFTISRDNAKNSLYLQMNSLRAEDTAVYYCVRHPQIGYWGQGTLVTVSS VL: DIQMTQSPSSLSASVGDRVTITCKASQSVGTAVAWYQQKPGKAPKLLIYSASSRYTGVPDRFSGSGSGTDFTLTISSLQPEDFADYFCHQYSSYPLTFGGGTKVEIKR | 0.0912 |
| hu46H2L1 (antibody, human IgG1, kappa, V domains shown) VH: EVQLVESGGGLVKPGGSLRLSCAASGFTFSNYGMSWVRQAPGKGLEWVSTIGSGGGYTYYSDSVKGRFTISRDNAKNSLYLQMNSLRAEDTAVYYCVRHPQIGYWGQGTLVTVSS VL: DIQMTQSPSSLSASVGDRVTITCKASQSVGTAVAWYQQKPGKAPKLLIYSASSRYTGVPSRFSGSGSGTDFTLTISSLQPEDFATYYCHQYSSYPLTFGGGTKVEIKR | 0.0788 |
| hu46H3L2 (antibody, human IgG1, kappa, V domains shown) VH: EVQLVESGGGLVKPGGSLRLSCAASGFTFSNYGMSWVRQAPGKGIKWVSTIGSGGGYTYYSDSVKGRFTISRDNAKNSLYLQMNSLRAEDTAVYYCVRHPQIGYWGQGTLVTVSS VL: DIQMTQSPSSLSASVGDRVTITCKASQSVGTAVAWYQQKPGKAPKLLIYSASSRYTGVPSRFSGSGSGTDFTLTISSLQPEDFADYFCHQYSSYPLTFGGGTKVEIKR | 0.0617 |
| hu46H3L1 (antibody, human IgG1, kappa, V domains shown) VH: EVQLVESGGGLVKPGGSLRLSCAASGFTFSNYGMSWVRQAPGKGIKWVSTIGSGGGYTYYSDSVKGRFTISRDNAKNSLYLQMNSLRAEDTAVYYCVRHPQIGYWGQGTLVTVSS VL: DIQMTQSPSSLSASVGDRVTITCKASQSVGTAVAWYQQKPGKAPKLLIYSASSRYTGVPSRFSGSGSGTDFTLTISSLQPEDFATYYCHQYSSYPLTFGGGTKVEIKR | 0.0597 |
| hu46H4L2 (antibody, human IgG1, kappa, V domains shown) VH: EVQLVESGGGLVKPGGSLRLSCAASGFTFSNYGMSWVRQAPGKGIKWVATIGSGGGYTYYSDSVKGRFTISRDNAKNSLYLQMNSLRAEDTAVYYCVRHPQIGYWGQGTLVTVSS VL: DIQMTQSPSSLSASVGDRVTITCKASQSVGTAVAWYQQKPGKAPKLLIYSASSRYTGVPSRFSGSGSGTDFTLTISSLQPEDFADYFCHQYSSYPLTFGGGTKVEIKR | 0.079 |
| hu46H4L1 (antibody, human IgG1, kappa, V domains shown) VH: EVQLVESGGGLVKPGGSLRLSCAASGFTFSNYGMSWVRQAPGKGIKWVATIGSGGGYTYYSDSVKGRFTISRDNAKNSLYLQMNSLRAEDTAVYYCVRHPQIGYWGQGTLVTVSS VL: DIQMTQSPSSLSASVGDRVTITCKASQSVGTAVAWYQQKPGKAPKLLIYSASSRYTGVPSRFSGSGSGTDFTLTISSLQPEDFATYYCHQYSSYPLTFGGGTKVEIKR | 0.0843 |
| hu46H2L3 (antibody, human IgG1, kappa, V domains shown) VH: EVQLVESGGGLVKPGGSLRLSCAASGFTFSNYGMSWVRQAPGKGLEWVSTIGSGGGYTYYSDSVKGRFTISRDNAKNSLYLQMNSLRAEDTAVYYCVRHPQIGYWGQGTLVTVSS VL: DIQMTQSPSSLSASVGDRVTITCKASQSVGTAVAWYQQKPGKAPKLLIYSASSRYTGVPDRFSGSGSGTDFTLTISSLQPEDFADYFCHQYSSYPLTFGGGTKVEIKR | 0.0805 |
| hu50H1L1 (antibody, human IgG1, kappa) heavy: not shown light: DIVMTQSPLSLPVTPGEPASISCRSSQSILHSNGNTYLEWYLQKPGQSPQLLIYRVSNRFSGVPDRFSGSGSGTDFTLKISRVEAEDVGVYYCFQGLHVPPTFGQGTKLEIKRTVAAPSVFIFPPSDEQLKSGTASVVCLLNNFYPREAKVQWKVDNALQSGNSQESVTEQDSKDSTYSLSSTLTLSKADYEKHKVYACEVTHQGLSSPVTKSFNRGEC | 0.0679 |
| hu50H2L2 (antibody, human IgG1, kappa) heavy: not shown light: DVFMTQSPLSLPVTPGEPASISCRSSQSILHSNGNTYLEWYLQKPGQSPQLLIYRVSNRFSGVPDRFSGSGSGTDFTLKISRVEAEDVGVYYCFQGLHVPPTFGQGTKLEIKRTVAAPSVFIFPPSDEQLKSGTASVVCLLNNFYPREAKVQWKVDNALQSGNSQESVTEQDSKDSTYSLSSTLTLSKADYEKHKVYACEVTHQGLSSPVTKSFNRGEC | 0.0477 |
| hu50H1L3 (antibody, human IgG1, kappa, V domains shown) VH: EVQLVQSGAEVKKPGASVKVSCKASGFTFTNYGISWVRQAPGQGLEWMGEIYPRSGNTYYNTNFKGRVTMTTDKSTSTAYMELRSLRSEDTAVYYCARNPFTTVVEGFAFWGQGTLVTVSS VL: DIVMTQSPLSLPVTPGEPASISCRSSQSILHSYGNTYLEWYLQKPGQSPQLLIYRVSNRFSGVPDRFSGSGSGTDFTLKISRVEAEDVGVYYCFQGLHVPPTFGQGTKLEIKR | 0.108 |
| hu50H2L1 (antibody, human IgG1, kappa) heavy: not shown light: DIVMTQSPLSLPVTPGEPASISCRSSQSILHSNGNTYLEWYLQKPGQSPQLLIYRVSNRFSGVPDRFSGSGSGTDFTLKISRVEAEDVGVYYCFQGLHVPPTFGQGTKLEIKRTVAAPSVFIFPPSDEQLKSGTASVVCLLNNFYPREAKVQWKVDNALQSGNSQESVTEQDSKDSTYSLSSTLTLSKADYEKHKVYACEVTHQGLSSPVTKSFNRGEC | 0.0487 |
| hu27H1L2 (antibody, human IgG1, kappa) heavy: not shown light: EIVLTQSPDFQSVTPKEKVTITCSASSSVSYMYWYQQKPDQSPKPWIYRTSNLASGVPSRFSGSGSGTDYTLTINSLEAEDAATYYCQQYHSYPLTFGQGTKLEIKRTVAAPSVFIFPPSDEQLKSGTASVVCLLNNFYPREAKVQWKVDNALQSGNSQESVTEQDSKDSTYSLSSTLTLSKADYEKHKVYACEVTHQGLSSPVTKSFNRGEC | 1.65 |
| hu71H3L1 (antibody, human IgG1, kappa) heavy: not shown light: DIVMTQTPLSLPVTPGEPASISCRSSQSLVHSYGNTYLHWYLQKPGQSPQLLIYKVSNRFSGVPDRFSGSGSGTDFTLKISRVEAEDVGVYYCSQTTHVPWTFGGGTKVEIKRTVAAPSVFIFPPSDEQLKSGTASVVCLLNNFYPREAKVQWKVDNALQSGNSQESVTEQDSKDSTYSLSSTLTLSKADYEKHKVYACEVTHQGLSSPVTKSFNRGEC | 0.086 |

Further lines, results first:

| EC50 [µg/mL] | Binder |
| --- | --- |
| 0.104 | hu50H2L3 (antibody, human IgG1, kappa, V domains shown) VH: EVQLVQSGAEVKKPGASVKVSCKASGFTFTNYGISWVRQAPGQGLEWMGEIYPRSGNTYYNTNFKGRVTLTADKSTSTAYMELRSLRSEDTAVYYCARNPFTTVVEGFAFWGQGTLVTVSS VL: DIVMTQSPLSLPVTPGEPASISCRSSQSILHSYGNTYLEWYLQKPGQSPQLLIYRVSNRFSGVPDRFSGSGSGTDFTLKISRVEAEDVGVYYCFQGLHVPPTFGQGTKLEIKR |
| 0.11 | hu71H1L2 (antibody, human IgG1, kappa) heavy: not shown light: DVVVTQTPLSLPVTPGEPASISCRSSQSLVHSYGNTYLHWYLQKPGQSPQLLIYKVSNRFSGVPDRFSGSGSGTDFTLKISRVEAEDVGVYYCSQTTHVPWTFGGGTKVEIKRTVAAPSVFIFPPSDEQLKSGTASVVCLLNNFYPREAKVQWKVDNALQSGNSQESVTEQDSKDSTYSLSSTLTLSKADYEKHKVYACEVTHQGLSSPVTKSFNRGEC |
| 0.116 | hu71H2L2 (antibody, human IgG1, kappa) heavy: not shown light: DVVVTQTPLSLPVTPGEPASISCRSSQSLVHSYGNTYLHWYLQKPGQSPQLLIYKVSNRFSGVPDRFSGSGSGTDFTLKISRVEAEDVGVYYCSQTTHVPWTFGGGTKVEIKRTVAAPSVFIFPPSDEQLKSGTASVVCLLNNFYPREAKVQWKVDNALQSGNSQESVTEQDSKDSTYSLSSTLTLSKADYEKHKVYACEVTHQGLSSPVTKSFNRGEC |
| 0.0631 | hu71H2L1 (antibody, human IgG1, kappa) heavy: not shown light: DIVMTQTPLSLPVTPGEPASISCRSSQSLVHSYGNTYLHWYLQKPGQSPQLLIYKVSNRFSGVPDRFSGSGSGTDFTLKISRVEAEDVGVYYCSQTTHVPWTFGGGTKVEIKRTVAAPSVFIFPPSDEQLKSGTASVVCLLNNFYPREAKVQWKVDNALQSGNSQESVTEQDSKDSTYSLSSTLTLSKADYEKHKVYACEVTHQGLSSPVTKSFNRGEC |
| 0.12 | hu71H1L1 (antibody, human IgG1, kappa) heavy: not shown light: DIVMTQTPLSLPVTPGEPASISCRSSQSLVHSYGNTYLHWYLQKPGQSPQLLIYKVSNRFSGVPDRFSGSGSGTDFTLKISRVEAEDVGVYYCSQTTHVPWTFGGGTKVEIKRTVAAPSVFIFPPSDEQLKSGTASVVCLLNNFYPREAKVQWKVDNALQSGNSQESVTEQDSKDSTYSLSSTLTLSKADYEKHKVYACEVTHQGLSSPVTKSFNRGEC |
| 0.101 | hu71H4L1 (antibody, human IgG1, kappa) heavy: not shown light: DIVMTQTPLSLPVTPGEPASISCRSSQSLVHSYGNTYLHWYLQKPGQSPQLLIYKVSNRFSGVPDRFSGSGSGTDFTLKISRVEAEDVGVYYCSQTTHVPWTFGGGTKVEIKRTVAAPSVFIFPPSDEQLKSGTASVVCLLNNFYPREAKVQWKVDNALQSGNSQESVTEQDSKDSTYSLSSTLTLSKADYEKHKVYACEVTHQGLSSPVTKSFNRGEC |
| 0.0867 | hu71H4L2 (antibody, human IgG1, kappa) heavy: not shown light: DVVVTQTPLSLPVTPGEPASISCRSSQSLVHSYGNTYLHWYLQKPGQSPQLLIYKVSNRFSGVPDRFSGSGSGTDFTLKISRVEAEDVGVYYCSQTTHVPWTFGGGTKVEIKRTVAAPSVFIFPPSDEQLKSGTASVVCLLNNFYPREAKVQWKVDNALQSGNSQESVTEQDSKDSTYSLSSTLTLSKADYEKHKVYACEVTHQGLSSPVTKSFNRGEC |
